The values that follow come from the supplement of paper PMC5998384.

In series [1] the test system is HeLa Kyoto. As to the kind of experiment: solubility in G1/S (NP-40 vs SDS abundance) (log2 ratio); higher = more soluble. The note with it: cell cycle stage: G1/S.
The subject of series [2] is HeLa Kyoto. Description: solubility change mitosis vs G1/S (difference of NP-40 vs SDS log2 ratios) (log2 ratio difference); higher = more soluble in mitosis.
Series [3] concerns HeLa Kyoto. As to the kind of experiment: thermal stability score vs G1/S (z-score of summed log2 fold changes over temperatures); higher = more thermally stable than in G1/S.
For series [4], the system named is HeLa Kyoto. Description: melting temperature (median over replicates), in situ; higher = more thermally stable.
Where [5] appears, read: cell cycle stage: early G1 (4.5 h after nocodazole release).
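Throughout, for melting temperature (median over replicates), in situ: HeLa Kyoto cells synchronized by double thymidine or nocodazole block, proteins quantified by TMT10plex mass spectrometry, three independent biological replicates.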
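Throughout, for solubility change mitosis vs G1/S (difference of NP-40 vs SDS log2 ratios): synchronized HeLa Kyoto cells (double thymidine block for G1/S, nocodazole release for mitosis), protein amounts in NP-40 versus SDS lysates quantified by mass spectrometry, three biological replicates.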
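Throughout, for solubility in G1/S (NP-40 vs SDS abundance): HeLa Kyoto cells arrested at G1/S by double thymidine block, proteins quantified by TMT10plex mass spectrometry in mild NP-40 versus SDS extracts, three biological replicates.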
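Throughout, for thermal stability score vs G1/S (z-score of summed log2 fold changes over temperatures): synchronized HeLa Kyoto cells, proteins quantified by TMT10plex mass spectrometry, three biological replicates, mitosis taken 0.5 h after nocodazole release, G1/S directly after double thymidine block.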

With “MIRAAPPPLFLLLLLLLLLVSWASRGEAAPDQDEIQRLPGLAKQPSFRQYSGYLKGSGSKHLHYWFVESQKDPENSPVVLWLNGGPGCSSLDGLLTEHGPFLVQPDGVTLEYNPYSWNLIANVLYLESPAGVGFSYSDDKFYATNDTEVAQSNFEALQDFFRLFPEYKNNKLFLTGESYAGIYIPTLAVLVMQDPSMNLQGLAVGNGLSSYEQNDNSLVYFAYYHGLLGNRLWSSLQTHCCSQNKCNFYDNKDLECVTNLQEVARIVGNSGLNIYNLYAPCAGGVPSHFRYEKDTVVVQDLGNIFTRLPLKRMWHQALLRSGDKVRMDPPCTNTTAASTYLNNPYVRKALNIPEQLPQWDMCNFLVNLQYRRLYRSMNSQYLKLLSSQKYQILLYNGDVDMACNFMGDEWFVDSLNQKMEVQRRPWLVKYGDSGEQIAGFVKEFSHIAFLTIKGAGHMVPTDKPLAAFTMFSRFLNKQPY [CTSA]”, the “solubility in G1/S (log2)” value in series [1] was determined as 0.138. Moreover, the “solubility change mitosis (log2)” value in series [2] was -0.0924. In addition, the thermal stability score in series [3] (setting [5]) was 0.798; in series [3] (cell cycle stage: mitosis), 2.87. In addition, the melting temperature is 54.5 °C in series [4] (cell cycle stage: G1/S) and 57 °C in series [4] (cell cycle stage: mitosis).
“MKALDEPPYLTVGTDVSAKYRGAFCEAKIKTAKRLVKVKVTFRHDSSTVEVQDDHIKGPLKVGAIVEVKNLDGAYQEAVINKLTDASWYTVVFDDGDEKTLRRSSLCLKGERHFAESETLDQLPLTNPEHFGTPVIGKKTNRGRRSNHIPEEESSSSSSDEDEDDRKQIDELLGKVVCVDYISLDKKKALWFPALVVCPDCSDEIAVKKDNILVRSFKDGKFTSVPRKDVHEITSDTAPKPDAVLKQAFEQALEFHKSRTIPANWKTELKEDSSSSEAEEEEEEEDDEKEKEDNSSEEEEEIEPFPEERENFLQQLYKFMEDRGTPINKRPVLGYRNLNLFKLFRLVHKLGGFDNIESGAVWKQVYQDLGIPVLNSAAGYNVKCAYKKYLYGFEEYCRSANIEFQMALPEKVVNKQCKECENVKEIKVKEENETEIKEIKMEEERNIIPREEKPIEDEIERKENIKPSLGSKKNLLESIPTHSDQEKEVNIKKPEDNENLDDKDDDTTRVDESLNIKVEAEEEKAKSGDETNKEEDEDDEEAEEEEEEEEEEEDEDDDDNNEEEEFECYPPGMKVQVRYGRGKNQKMYEASIKDSDVEGGEVLYLVHYCGWNVRYDEWIKADKIVRPADKNVPKIKHRKKIKNKLDKEKDKDEKYSPKNCKLRRLSKPPFQTNPSPEMVSKLDLTDAKNSDTAHIKSIEITSILNGLQASESSAEDSEQEDERGAQDMDNNGKEESKIDHLTNNRNDLISKEEQNSSSLLEENKVHADLVISKPVSKSPERLRKDIEVLSEDTDYEEDEVTKKRKDVKKDTTDKSSKPQIKRGKRRYCNTEECLKTGSPGKKEEKAKNKESLCMENSSNSSSDEDEEETKAKMTPTKKYNGLEEKRKSLRTTGFYSGFSEVAEKRIKLLNNSDERLQNSRAKDRKDVWSSIQGQWPKKTLKELFSDSDTEAAASPPHPAPEEGVAEESLQTVAEEESCSPSVELEKPPPVNVDSKPIEEKTVEVNDRKAEFPSSGSNSVLNTPPTTPESPSSVTVTEGSRQQSSVTVSEPLAPNQEEVRSIKSETDSTIEVDSVAGELQDLQSEGNSSPAGFDASVSSSSSNQPEPEHPEKACTGQKRVKDAQGGGSSSKKQKRSHKATVVNNKKKGKGTNSSDSEELSAGESITKSQPVKSVSTGMKSHSTKSPARTQSPGKCGKNGDKDPDLKEPSNRLPKVYKWSFQMSDLENMTSAERITILQEKLQEIRKHYLSLKSEVASIDRRRKRLKKKERESAATSSSSSSPSSSSITAAVMLTLAEPSMSSASQNGMSVECR [ARID4B]”: the “solubility in G1/S (log2)” value in series [1] was -0.276. Also, in series [2], the “solubility change mitosis (log2)” value was 0.0721. The thermal stability score amounted to 0.255 in series [3] (setting [5]) and 0.983 in series [3] (cell cycle stage: mitosis). Also, the melting temperature was determined as 48.4 °C in series [4] (cell cycle stage: G1/S) and 49.6 °C in series [4] (cell cycle stage: mitosis).
Turning to “MKARRNKKQIPSFRKLIKTSKVKLENKLKNKQFKQQSTLKKYRKEQRKLRQAVKDAVSKKPIPLENPKEKRPGKRIEREEEEEEEALPLDMMDEDDLQLMKDLGQRVSFLTRDLSSSEPVHAKKRKHERIIDKYEKIPRTLQTAPEKELIHLLPIKDKSGIIPQTREKPVTDSNKDEEDQEEERELEEEIIEDPIQELTIEEHLIERKKKLQEKKMHIAALASAILSDPENNIKKLKELRSMLMEQDPDVAVTVRKLVIVSLMELFKDITPSYKIRPLTEAEKSTKTRKETQKLREFEEGLVSQYKFYLENLEQMVKDWKQRKLKKSNVVSLKAYKGLAEVAVKSLCELLVALPHFNFHNNIIVLIVPLMNDMSKLISEMCCEAVKKLFKQDKLGQASLGVIKVISGFVKGRNYEVRPEMLKTFLCLRIKEVEVKKDTEDINKPKKFMTFKEKRKSLSRMQRKWKKAEEKLERELREAEASESTEKKLKLHTETLNIVFVTYFRILKKAQRSPLLPAVLEGLAKFAHLINVEFFDDLLVVLHTLIESGDLSYQESLHCVQTAFHILSGQGDVLNIDPLKFYTHLYKTLFKLHAGATNEGVEIVLQCLDVMLTKRRKQVSQQRALAFIKRLCTLALHVLPNSSIGILATTRILMHTFPKTDLLLDSESQGSGVFLPELDEPEYCNAQNTALWELHALRRHYHPIVQRFAAHLIAGAPSEGSGALKPELSRRSATELFEAYSMAEMTFNPPVESSNPKIKGKFLQGDSFLNEDLNQLIKRYSSEVATESPLDFTKYLKTSLH [NOC3L]”, in series [1], the “solubility in G1/S (log2)” value was -1.96. Also, the “solubility change mitosis (log2)” value in series [2] was 1.29. The values for the thermal stability score in series [3] (setting [5]) and in series [3] (cell cycle stage: mitosis) were 0.294 and 0.855, respectively. Also, the results for the melting temperature in series [4] (cell cycle stage: G1/S) and in series [4] (cell cycle stage: mitosis) were 49.2 °C and 50 °C, respectively.
On to “MKDSENKGASSPDMEPSYGGGLFDMVKGGAGRLFSNLKDNLKDTLKDTSSRVIQSVTSYTKGDLDFTYVTSRIIVMSFPLDNVDIGFRNQVDDIRSFLDSRHLDHYTVYNLSPKSYRTAKFHSRVSECSWPIRQAPSLHNLFAVCRNMYNWLLQNPKNVCVVHCLDGRAASSILVGAMFIFCNLYSTPGPAIRLLYAKRPGIGLSPSHRRYLGYMCDLLADKPYRPHFKPLTIKSITVSPIPFFNKQRNGCRPYCDVLIGETKIYSTCTDFERMKEYRVQDGKIFIPLNITVQGDVVVSMYHLRSTIGSRLQAKVTNTQIFQLQFHTGFIPLDTTVLKFTKPELDACDVPEKYPQLFQVTLDVELQPHDKVIDLTPPWEHYCTKDVNPSILFSSHQEHQDTLALGGQAPIDIPPDNPRHYGQSGFFASLCWQDQKSEKSFCEEDHAALVNQESEQSDDELLTLSSPHGNANGDKPHGVKKPSKKQQEPAAPPPPEDVDLLGLEGSAMSNSFSPPAAPPTNSELLSDLFGGGGAAGPTQAGQSGVEDVFHPSGPASTQSTPRRSATSTSASPTLRVGEGATFDPFGAPSKPSGQDLLGSFLNTSSASSDPFLQPTRSPSPTVHASSTPAVNIQPDVSGGWDWHAKPGGFGMGSKSAATSPTGSSHGTPTHQSKPQTLDPFADLGTLGSSSFASKPTTPTGLGGGFPPLSSPQKASPQPMGGGWQQGGAYNWQQPQPKPQPSMPHSSPQNRPNYNVSFSAMPGGQNERGKGSSNLEGKQKAADFEDLLSGQGFNAHKDKKGPRTIAEMRKEEMAKEMDPEKLKILEWIEGKERNIRALLSTMHTVLWAGETKWKPVGMADLVTPEQVKKVYRKAVLVVHPDKATGQPYEQYAKMIFMELNDAWSEFENQGQKPLY [DNAJC6]”, for which the “solubility in G1/S (log2)” value in series [1] turned out to be 0.0466. Further, the “solubility change mitosis (log2)” value in series [2] is -0.112. Besides, the thermal stability score in series [3] (setting [5]) was -0.0779; in series [3] (cell cycle stage: mitosis), -0.888. The melting temperature in series [4] (cell cycle stage: G1/S) came out at 51.6 °C; in series [4] (cell cycle stage: mitosis) it was 51.7 °C.
